Experimental data published in paper doi:10.1101/2024.08.19.608714 (bioRxiv, 2024).

Biological target: the molecule itself
Assay: cryo-EM structure

B1: human XPR1 (natural protein)
chain: MKFAEHLSAHITPEWRKQYIQYEAFKDMLYSAQDQAPSVEVTDEDTVKRYFAKFEEKFFQTCEKELAKINTFYSEKLAEAQRRFATLQNELQSSLDAQKESTGVTTLRQRRKPVFHLSHEERVQHRNIKDLKLAFSEFYLSLILLQNYQNLNFTGFRKILKKHDKILETSRGADWRVAHVEVAPFYTCKKINQLISETEAVVTNELEDGDRQKAMKRLRVPPLGAAQPAPAWTTFRVGLFCGIFIVLNITLVLAAVFKLETDRSIWPLIRIYRGGFLLIEFLFLLGINTYGWRQAGVNHVLIFELNPRSNLSHQHLFEIAGFLGILWCLSLLACFFAPISVIPTYVYPLALYGFMVFFLINPTKTFYYKSRFWLLKLLFRVFTAPFHKVGFADFWLADQLNSLSVILMDLEYMICFYSLELKWDESKGLLPNNSEESGICHKYTYGVRAIVQCIPAWLRFIQCLRRYRDTKRAFPHLVNAGKYSTTFFMVTFAALYSTHKERGHSDTMVFFYLWIVFYIISSCYTLIWDLKMDWGLFDKNAGENTFLREEIVYPQKAYYYCAIIEDVILRFAWTIQISITSTTLLPHSGDIIATVFAPLEVFRRFVWNFFRLENEHLNNCGEFRAVRDISVAPLNADDQTLLEQMMDQDDGVRNRQKNRSWKYNQSISLRRPRLASQSKARDTKVLIEDTDDEANT
For B1, the “stoichiometry N” value was 2.
